“Also recorded” adds a separate entry of the source.
How the values were obtained:
[1] = test system: transmigration of peripheral blood lymphocytes (PBL) across TNF-α/IFN-γ stimulated endothelial cells; experiment: PBL transendothelial migration, static adhesion (transwell) assay; type: cell-based, human; settings: for PBL transmigration: static assay, adiponectin 0.0001-15 μg/ml, peptide 0.001-10 ng/ml, control peptides 10 ng/ml
[2] = test system: transmigration of B cell depleted PBL / T cells / NK cells across TNF-α/IFN-γ stimulated endothelial cells; experiment: B cell dependence of adiponectin inhibition (B cell depletion, B cell supernatants, Brefeldin A, NK cells); type: cell-based, human; settings: for effect of B cell supernatants prepared in the presence of Brefeldin A: inhibitor of B cell secretion; for adiponectin inhibition of migration after removal of B cells from PBL: adiponectin 15 μg/ml, B cell depleted PBL
Protocol: B cells were isolated and incubated in presence or absence of adiponectin at 15 μg/ml. […] For some experiments, B cells were treated with Brefeldin A, an inhibitor of B cell secretion. […] This is shown in FIG. 8, where the data is shown as mean±SEM and is representative of three independent experiments analysed using one-way ANOVA and Bonferroni's multiple comparison post test. ***p<0.001, ns=non-significant.
Refer to FIG. 14. Endothelial cells were cultured in low serum medium and stimulated with TNF-α/IFN-γ for 24 hours in the absence of adiponectin. PBL transmigration was measured after removal of B cells using bead positive selection and after reconstitution with B cells that were isolated using bead negative selection in presence or absence of adiponectin (15 μg/ml). Supernatants from adiponectin-treated B cells or B cell treated with Brefeldin A to block protein secretion were added to PBL.

[3] = test system: lymphocyte integrin LFA-1 (CD11a/CD18; αLβ2); experiment: LFA-1 affinity sites on memory T cells immobilised on ICAM, activated with IP-10; type: cell-based; settings: IP-10 10 ng/ml, S1P 10 μM, 30 minutes
Protocol: Refer to FIG. 20. 96 well plates were coated with 50 μg/ml of recombinant ICAM overnight at 4° C. The plate was blocked using PBS 4% BSA for an hour at room temperature and PBL treated with IP-10 (10 ng/ml) and/or S1P (10 μM) were added for 30 minutes. Excess of unbound PBL was washed and PBL were labelled for the intermediate affinity site of the lymphocyte integrin LFA-1 (CD11a/CD18; αLβ2) using the KIM127 antibody (10 ug/ml) and for the high affinity site using antibody 24 (10 ug/ml) at 4° C. The expression of both affinity site was measured on memory T cells using mean fluorescence intensity (MFI). […] Data is a pool of two independent experiments.

[4] = test system: PBL or B cell depleted PBL transmigration across IFN-γ/TNF-α treated HUVEC; experiment: S1P signalling in PBL transmigration across HUVEC; type: cell-based, human
Protocol: Refer to FIG. 19. […]. Levels of SPHK1 and SPHK2 mRNA expression determined by real-time PCR of RNA from B cells and HUVEC (part D, n=2). PBL transmigration was measured across IFN-γ/TNF-α treated HUVEC pre-treated with SPHK1 specific inhibitor (5 μM) in presence of […] (10 ng/ml) (part E).

[5] = test system: PBL migration across TNF-α/IFN-γ stimulated endothelial cells under flow; experiment: PBL migration, flow based adhesion assay; type: cell-based, human; settings: adiponectin 15 μg/ml
Protocol: We have been interested in the ability of the adipocyte derived cytokine, adiponectin, to regulate the recruitment of human T cells to inflamed endothelium. […] In our in vitro studies we used static transwell assays, as well as flow based adhesion assays, to track the migration of T cells (which were in crude isolates of peripheral blood lymphocytes [PBL]) across TNF-α and IFN-γ stimulated endothelial cells.
Endothelial cells were cultured in low serum medium and stimulated with TNF-α/IFN-γ for 24 hours in the absence of adiponectin. PBL were isolated and treated with adiponectin at 0.0001 to 15 μg/ml for one hour.
Refer to FIG. 13. Endothelial cells were cultured in low serum medium and stimulated with TNF-α/IFN-γ for 24 hours in the absence of adiponectin. PBL were isolated and treated with adiponectin at 0.0001 to 15 μg/ml for one hour. […] In part (D), compound C, an AMP-kinase inhibitor, was added to PBL at 10 μg/ml for 30 minutes prior to addition of adiponectin at 15 μg/ml for 1 hour. AMPK is a signalling adapter that is required for adiponectin-receptor signalling. […] Data is a pool of at least three independent experiments and were analysed using t-test, one-way ANOVA and Dunnett's multiple comparisons post-test. **[…], ***[…].

[6] = test system: PBL from T1D patients across TNF-α/IFN-γ stimulated endothelial cells; experiment: Transmigration of PBL from type 1 diabetes patients; settings: adiponectin 15 μg/ml one hour or exogenous PEPITEM
Protocol: Endothelial cells were cultured in low serum medium and stimulated with TNF-α/IFN-γ for 24 hours in absence of adiponectin. […] Data was analysed using t-test and one-way ANOVA and Bonferonni's multiple comparisons post-test. ***p≦1.0001.
Endothelial cells were cultured in low serum medium and stimulated with TNF-α/IFN-γ for 24 hours in the absence of adiponectin. […] Data was analysed using t-test **p<0.01.

For `c1cc(-c2cnn3cc(-c4ccc(OCCN5CCCCC5)cc4)cnc23)ccn1` [compound C, reference compound], the “effect on adiponectin-induced decrease of PBL transmigration” value ([1]; compound C 10 μg/ml on PBL 30 minutes before adiponectin 15 μg/ml 1 hour) was “restored to normal, control levels; also recorded: restored to normal control levels; also recorded: ablated” and the “PBL migration in the absence of adiponectin” value ([1]; compound C alone) was “did not have any effects”.

For `C[C@H]1CCC/C=C/[C@@H]2C[C@H](O)C[C@H]2[C@H](O)/C=C/C(=O)O1` [Brefeldin A, reference compound], the “effect of B cell supernatants prepared in the presence of Brefeldin A” value (shortened to “effect of B cell supernatants prepared”) [2] was “not able to regulate the migration of T cells”, the “effect of B cell supernatants prepared” value ([2]; listed as Brefeldin-A) was “this effect was lost” and the “effect of B cell supernatants prepared” value ([2]; listed as Brefeldine A) was “lost”.

For `CCCCCCCCCCCCC/C=C/[C@@H](O)[C@@H](N)COP(=O)(O)O` [S1P, sphingosine-1-phosphate], the “expression of intermediate (KIM127) and high affinity (antibody 24) sites of LFA-1 on memory T cells (MFI)” value [3] was “down-regulated” and the “transmigration of B cell depleted PBL pre-treated with S1P” value ([4]; exogenous S1P 0-100 μM (FIG. 19C)) was “restores the inhibition of transmigration; also recorded: dose dependently inhibits T cell migration”.

`CCCCCCc1cccc(NC(=O)[C@H](N)CCP(=O)(O)O)c1` [W146] was tested, and the “effect on PEPITEM inhibition of lymphocyte transmigration” value ([4]; W146 10 μM with PEPITEM (FIG. 19B)) was “releases lymphocytes from the inhibitory effects of PEPITEM” and the “effect on adiponectin inhibition of lymphocyte transmigration” value ([4]; W146 10 μM, adiponectin 15 μg/ml (FIG. 19A)) was “releases lymphocytes from the inhibitory effects of Adiponectin”.

B1: adiponectin (protein)
chain: ETTTQGPGVLLPLPKGACTGWMAGIPGHPGHNGAPGRDGRDGTPGEKGEKGDPGLIGPKGDIGETGVPGAEGPRGFPGIQGRKGEPGEGAYVYRSAFSVGLETYVTIPNMPIRFTKIFYNQQNHYDGSTGKFHCNIPGLYYFAYHITVYMKDVKVSLFKKDKAMLFTYDQYQENNVDQASGSVLLHLEVGDQVWLQVYGEGERNGLYADNDNDSTFTGFLLYHDTN
notes: adipocyte-derived cytokine, used as positive control
With B1 the “PBL migration in flow based adhesion assay” value [5] was “equally effective”, the “adiponectin inhibition of migration after removal of B cells from PBL” value (from here on “adiponectin inhibition of migration”) [2] was “lost” and the “adiponectin inhibition of migration” value ([2]; listed as Adiponectin) was “completely inhibited this response”. The “adiponectin inhibition of migration” value ([2]; listed as Aq) was “completely inhibited this response”, the “migration of natural killer cells” value ([2]; with adiponectin (FIG. 7B)) was “not affected” and the “EC50, inhibition of PBL transmigration” value ([1]; adiponectin, static adhesion assay, PBL treated one hour, linear regression (FIG. 1B)) was 0.94 µg/mL. For the same molecule, the EC50 ([1]; adiponectin, static adhesion assay, linear regression (FIG. 13A), read-out: EC50, inhibition of PBL transmigration) was roughly 40 nM, the “inhibition of PBL transmigration on DMEC” value ([1]; dermal microvascular endothelium (FIG. 13C)) was “effective” and the “inhibition of PBL transmigration on HUVEC” value ([1]; endothelial cells from umbilical cord (FIG. 13C)) was “effective”. The “inhibition of PBL transmigration on HSEC” value ([1]; liver sinusoidal endothelial cells (FIG. 13C)) was “effective”, the “inhibition of PBL transmigration on HSAVEC” value ([1]; saphenous vein endothelial cells (FIG. 13C)) was “not” and the PBL transmigration [1] was “significantly and dose dependently reduced; also recorded: dose dependently blocked”. The PBL transmigration ([1]; listed as Adiponectin) was “induced a decrease of transmigration”, the PBL transmigration ([1]; listed as Aq) was “significantly reduced lymphocyte migration” and the “inhibition of transmigration of PBL from T1D patients” value [6] was “refractory; also recorded: significantly compromised”. The “inhibition of transmigration of PBL from T1D patients” value ([6]; listed as Adiponectin) was “lost”.

Source: patent publication US9839671B2, “Peptide and uses therefor” (University of Birmingham, priority 2012, dated 2017)
